Results from publication PMC3481545.
pKd: −log10 of the molar value.

Assays:
Experiment in all cases: SPR
[1] = target: GDF-5 (UniProt P43026)
[2] = target: BMP-7 (UniProt P18075)
[3] = target: Activin (UniProt P08476)

Chain of GDF-5 (P43026 382-501): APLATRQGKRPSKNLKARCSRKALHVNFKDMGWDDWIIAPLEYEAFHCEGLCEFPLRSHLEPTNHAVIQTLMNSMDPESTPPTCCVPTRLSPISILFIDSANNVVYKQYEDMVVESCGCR
Chain of BMP-7 (P18075 293-431): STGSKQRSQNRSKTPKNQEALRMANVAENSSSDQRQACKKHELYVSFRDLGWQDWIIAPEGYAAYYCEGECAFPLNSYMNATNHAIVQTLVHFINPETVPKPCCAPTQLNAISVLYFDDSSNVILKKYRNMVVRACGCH

Row | pKd [1] | pKd [2] | pKd [3] | Substance
1 | < 2.89 | 4.80 | – | human recombinant ActR-IIB ECD, wild type (from UniProt Q13705 19-134) (domain or fragment)
2 | < 2.89 | 4.57 | 4.03 | BΔB: BMPR-II ECD with its A-loop deleted (from UniProt Q13873 26-150) (domain or fragment)
3 | < 2.89 | 4.52 | < 2.89 | AΔA: ActR-IIB ECD with its A-loop deleted (domain or fragment)
